# B1: DGL267 (bispecific antibody)
# chain 1: EVQLLESGGGLVQPGGSLRLSCAASGFTFSSYAMSWVRQAPGKGLEWVANINQDGSEKNYVDSMRGRFTISRDNSKNTLYLQMNSLRAEDTAVYYCAREFDYWGQGTLVTVTSSGGGGSGGGGSGGGGSQSVLAQPPSASGTPGQRVTISCSGSSSNIGSNYVYWYQQLPGTAPKLLIYGNNKRPSGVPDRFSGSKSGTSASLAISGLRSEDEADYYCAAWDDSLNGRVFGGGTKLTVLGGGGSGGGGSGGGGSGVECPPCPAPPVAGPSVFLFPPKPKDTLMISRTPEVTCVVVDVSHEDPEVQFNWYVDGVEVHNAKTKPREEQFNSTFRVVSVLTVVHQDWLNGKEYKCKVSNKGLPAPIEKTISKTKGQPREPQVYTLPPCREEMTKNQVSLWCLVKGFYPSDIAVEWESNGQPENNYKTTPPMLDSDGSFFLYSKLTVDKSRWQQGNVFSCSVMHEALHNHYTQKSLSLSPG
# chain 2: EVQLLESGGGLVQPGGSLRLSCAASGFTFSDYYMTWIRQAPGKGLEWVSSISGGSTYYADSRKGRFTISRDNSENTLYLQMNSLRAEDTAVYYCARDFGVAGWFGQYGMDVWGQGTLVTVSSGGGGSGGGGSGGGGSQSVLTQPPSASGTPGQRVTISCTGSSSNIGAGYDVHWYQQLPGTAPKLLIYRSNQRPSGVPDRFSGSKSGTSASLAISGLRSEDEADYYCSSYAGNYNLVFGGGTKLTVLGGGGSGGGGSGGGGSGVECPPCPAPPVAGPSVFLFPPKPKDTLMISRTPEVTCVVVDVSHEDPEVQFNWYVDGVEVHNAKTKPREEQFNSTFRVVSVLTVVHQDWLNGKEYKCKVSNKGLPAPIEKTISKTKGQPREPQVCTLPPSREEMTKNQVSLSCAVKGFYPSDIAVEWESNGQPENNYKTTPPMLDSDGSFFLVSKLTVDKSRWQQGNVFSCSVMHEALHNHYTQKSLSLSPG
# B2: DGL268 (bispecific antibody)
# chain 1: EVQLLESGGGLVQPGGSLRLSCAASGFTFSIYAMSWVRQAPGKGLEWVSAISGSGGSTYYADSVKGRFTISRDNSKNTLYLQMNSLRAEDTAVYYCARDFDYWGQGTLVTVTSSGGGGSGGGGSGGGGSQSVLTQPPSASGTPGQRVTISCSGSSSNIGSNYVYWYQQLPGTAPKLLIYGNINRPSGVPDRFSGSKSGTSASLAISGLRSEDEADYYCAAWDDSLNGRVFGGGTKLTVLGGGGSGGGGSGGGGSGVECPPCPAPPVAGPSVFLFPPKPKDTLMISRTPEVTCVVVDVSHEDPEVQFNWYVDGVEVHNAKTKPREEQFNSTFRVVSVLTVVHQDWLNGKEYKCKVSNKGLPAPIEKTISKTKGQPREPQVYTLPPCREEMTKNQVSLWCLVKGFYPSDIAVEWESNGQPENNYKTTPPMLDSDGSFFLYSKLTVDKSRWQQGNVFSCSVMHEALHNHYTQKSLSLSPG
# chain 2: EVQLLESGGGLVQPGGSLRLSCAASGFTFSIYAMSWVRQAPGKGLEWVSAISGSGGSTYYADSVKGRFTISRDNSKNTLYLQMNSLRAEDTAVYYCARDFDYWGQGTLVTVTSSGGGGSGGGGSGGGGSQSVLTQPPSASGTPGQRVTISCSGSSSNIGSNYVYWYQQLPGTAPKLLIYGNINRPSGVPDRFSGSKSGTSASLAISGLRSEDEADYYCAAWDDSLNGRVFGGGTKLTVLGGGGSGGGGSGGGGSGVECPPCPAPPVAGPSVFLFPPKPKDTLMISRTPEVTCVVVDVSHEDPEVQFNWYVDGVEVHNAKTKPREEQFNSTFRVVSVLTVVHQDWLNGKEYKCKVSNKGLPAPIEKTISKTKGQPREPQVCTLPPSREEMTKNQVSLSCAVKGFYPSDIAVEWESNGQPENNYKTTPPMLDSDGSFFLVSKLTVDKSRWQQGNVFSCSVMHEALHNHYTQKSLSLSPG
# B3: DGL269 (bispecific antibody)
# chain 1: EVQLLESGGGLVQPGGSLRLSCAASGFTFSNAWMNWVRQAPGKGLEWVSSISSSSSYIYYADSVKGRFTISRDNSKNTLYLQMNSLRAEDTAVYYCARAVAAGGMFWGLDQWGQGTLVTVTSSGGGGSGGGGSGGGGSQSVLTQPPSASGTPGQRVTISCSGSRSNIGSNSVHWYQQLPGTAPKLLIYGNSNRPSGVPDRFSGSKSGTSASLAISGLRSEDEADYYCQSYDSSLNDHVVFGGGTKLTVLGGGGSGGGGSGGGGSGVECPPCPAPPVAGPSVFLFPPKPKDTLMISRTPEVTCVVVDVSHEDPEVQFNWYVDGVEVHNAKTKPREEQFNSTFRVVSVLTVVHQDWLNGKEYKCKVSNKGLPAPIEKTISKTKGQPREPQVYTLPPCREEMTKNQVSLWCLVKGFYPSDIAVEWESNGQPENNYKTTPPMLDSDGSFFLYSKLTVDKSRWQQGNVFSCSVMHEALHNHYTQKSLSLSPG
# chain 2: EVQLLESGGGLVQPGGSLRLSCAASGFTFSNAWMNWVRQAPGKGLEWVSSISSSSSYIYYADSVKGRFTISRDNSKNTLYLQMNSLRAEDTAVYYCARAVAAGGMFWGLDQWGQGTLVTVTSSGGGGSGGGGSGGGGSQSVLTQPPSASGTPGQRVTISCSGSRSNIGSNSVHWYQQLPGTAPKLLIYGNSNRPSGVPDRFSGSKSGTSASLAISGLRSEDEADYYCQSYDSSLNDHVVFGGGTKLTVLGGGGSGGGGSGGGGSGVECPPCPAPPVAGPSVFLFPPKPKDTLMISRTPEVTCVVVDVSHEDPEVQFNWYVDGVEVHNAKTKPREEQFNSTFRVVSVLTVVHQDWLNGKEYKCKVSNKGLPAPIEKTISKTKGQPREPQVCTLPPSREEMTKNQVSLSCAVKGFYPSDIAVEWESNGQPENNYKTTPPMLDSDGSFFLVSKLTVDKSRWQQGNVFSCSVMHEALHNHYTQKSLSLSPG
# B4: DGL270 (bispecific antibody)
# chain 1: EVQLLESGGGLVQPGGSLRLSCAASGFTFSSYAMSWVRQAPGKGLEWVANINQDGSEKNYVDSMRGRFTISRDNSKNTLYLQMNSLRAEDTAVYYCAREFDYWGQGTLVTVTSSGGGGSGGGGSGGGGSQSVLAQPPSASGTPGQRVTISCSGSSSNIGSNYVYWYQQLPGTAPKLLIYGNNKRPSGVPDRFSGSKSGTSASLAISGLRSEDEADYYCAAWDDSLNGRVFGGGTKLTVLGGGGSGGGGSGGGGSGVECPPCPAPPVAGPSVFLFPPKPKDTLMISRTPEVTCVVVDVSHEDPEVQFNWYVDGVEVHNAKTKPREEQFNSTFRVVSVLTVVHQDWLNGKEYKCKVSNKGLPAPIEKTISKTKGQPREPQVYTLPPCREEMTKNQVSLWCLVKGFYPSDIAVEWESNGQPENNYKTTPPMLDSDGSFFLYSKLTVDKSRWQQGNVFSCSVMHEALHNHYTQKSLSLSPG
# chain 2: EVQLLESGGGLVQPGGSLRLSCAASGFTFSSYAMSWVRQAPGKGLEWVANINQDGSEKNYVDSMRGRFTISRDNSKNTLYLQMNSLRAEDTAVYYCAREFDYWGQGTLVTVTSSGGGGSGGGGSGGGGSQSVLAQPPSASGTPGQRVTISCSGSSSNIGSNYVYWYQQLPGTAPKLLIYGNNKRPSGVPDRFSGSKSGTSASLAISGLRSEDEADYYCAAWDDSLNGRVFGGGTKLTVLGGGGSGGGGSGGGGSGVECPPCPAPPVAGPSVFLFPPKPKDTLMISRTPEVTCVVVDVSHEDPEVQFNWYVDGVEVHNAKTKPREEQFNSTFRVVSVLTVVHQDWLNGKEYKCKVSNKGLPAPIEKTISKTKGQPREPQVCTLPPSREEMTKNQVSLSCAVKGFYPSDIAVEWESNGQPENNYKTTPPMLDSDGSFFLVSKLTVDKSRWQQGNVFSCSVMHEALHNHYTQKSLSLSPG
# Target: ALK-1/BMPR-2 receptor pair of the PathHunter U2Os dimerization cells (DiscoverX 93-0962C3) (UniProt P37023 22-503; Q13873 27-1038)
# Sequence (P37023 22-503, chain 1 of 2): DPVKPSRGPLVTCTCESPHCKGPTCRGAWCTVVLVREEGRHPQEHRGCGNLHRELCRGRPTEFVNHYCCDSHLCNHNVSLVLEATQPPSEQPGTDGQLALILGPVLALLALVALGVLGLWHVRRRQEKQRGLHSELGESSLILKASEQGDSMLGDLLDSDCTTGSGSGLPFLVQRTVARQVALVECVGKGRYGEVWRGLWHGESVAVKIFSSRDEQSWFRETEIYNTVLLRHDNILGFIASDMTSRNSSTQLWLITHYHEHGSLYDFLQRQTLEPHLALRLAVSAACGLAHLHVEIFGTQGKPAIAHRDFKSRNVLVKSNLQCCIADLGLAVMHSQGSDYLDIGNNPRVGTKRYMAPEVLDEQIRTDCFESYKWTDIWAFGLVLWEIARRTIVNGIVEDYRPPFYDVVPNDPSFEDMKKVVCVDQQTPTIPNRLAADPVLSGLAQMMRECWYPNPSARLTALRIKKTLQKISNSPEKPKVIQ
# Sequence (Q13873 27-1038, chain 2 of 2): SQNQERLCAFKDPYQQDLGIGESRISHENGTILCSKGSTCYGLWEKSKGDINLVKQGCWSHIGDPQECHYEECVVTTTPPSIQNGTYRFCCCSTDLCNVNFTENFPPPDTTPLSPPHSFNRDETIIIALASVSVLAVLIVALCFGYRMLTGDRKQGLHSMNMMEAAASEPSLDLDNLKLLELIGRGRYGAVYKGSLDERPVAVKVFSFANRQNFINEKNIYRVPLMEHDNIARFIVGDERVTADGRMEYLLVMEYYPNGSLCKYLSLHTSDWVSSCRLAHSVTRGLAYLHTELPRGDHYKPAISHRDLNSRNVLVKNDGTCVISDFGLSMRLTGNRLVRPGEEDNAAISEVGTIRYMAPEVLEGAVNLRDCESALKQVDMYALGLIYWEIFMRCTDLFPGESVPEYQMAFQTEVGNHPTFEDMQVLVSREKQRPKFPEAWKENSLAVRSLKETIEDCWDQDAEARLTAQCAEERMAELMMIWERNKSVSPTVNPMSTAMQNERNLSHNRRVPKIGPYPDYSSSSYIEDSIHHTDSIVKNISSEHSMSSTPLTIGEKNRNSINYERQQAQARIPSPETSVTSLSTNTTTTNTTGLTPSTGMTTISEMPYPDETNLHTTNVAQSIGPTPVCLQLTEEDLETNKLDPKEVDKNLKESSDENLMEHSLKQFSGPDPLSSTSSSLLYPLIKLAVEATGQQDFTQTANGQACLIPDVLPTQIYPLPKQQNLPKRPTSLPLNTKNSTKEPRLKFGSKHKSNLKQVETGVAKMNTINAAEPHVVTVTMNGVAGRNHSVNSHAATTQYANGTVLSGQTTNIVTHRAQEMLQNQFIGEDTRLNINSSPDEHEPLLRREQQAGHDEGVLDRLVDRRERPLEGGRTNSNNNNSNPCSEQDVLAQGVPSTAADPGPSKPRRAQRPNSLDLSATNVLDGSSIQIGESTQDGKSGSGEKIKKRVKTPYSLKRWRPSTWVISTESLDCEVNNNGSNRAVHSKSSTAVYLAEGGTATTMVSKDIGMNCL
# Test: cell-based or functional assay
Binder,% Emax BMP9 [%],EC50 [nM],Emax (RLU)
B1,46,0.9,1.23e+06
B2,1,0.1,35200
B3,0,–,-8300
B4,0,–,9200
